The results in this text go back to PMC11778176, “The IclR-family transcriptional regulator XyrR controls flotation, motility, antibiotic production and virulence in Serratia sp. ATCC 39006”.

The target of this data set is T1, IclR (XyrR, XynR homolog) (Serratia sp. ATCC 39006, UniProt A0A2I5T4I6 1-255).
T1 sequence: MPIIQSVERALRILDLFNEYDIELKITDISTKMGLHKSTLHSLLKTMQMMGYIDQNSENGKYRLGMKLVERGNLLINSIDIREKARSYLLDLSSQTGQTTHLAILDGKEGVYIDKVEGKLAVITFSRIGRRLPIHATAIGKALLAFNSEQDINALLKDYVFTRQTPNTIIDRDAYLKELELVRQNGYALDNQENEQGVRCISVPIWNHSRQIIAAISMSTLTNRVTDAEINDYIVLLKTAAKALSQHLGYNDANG
The data set can be described thus: EMSA; complete shift at 0.8 uM IclR (stated protein:DNA 32:1; Methods state probe 5 nM); 10 mM Tris-HCl pH 8, 5 mM DTT, 50 mM KCl, 1 mM MgCl2, 10% glycerol, 0.1% Triton X-100, 30 min at 20 C; 5 nM probe. The settings on record: protein: recombinant; tags: 6xHis (pQE80); chain copies: 2; label: Cy5 on LUEGO strand (S13); three strands: S15 (long) pairs with S13 followed by S14; nick between S13 and S14; blunt.

B1: yagE promoter LUEGO probe (dsDNA)
DNA 1: CACCACAAATTGCAGTGTTAGTATCATTTCGTTAATGTAGAACTTAGTTCTATAATATAAAACAAAATATCAATGAAGATCGACTGACACATATCGATTGTTGTGA
DNA 2: TCACAACAATCGATATGTGTCAGTCGATCTTCATTGATATTTTGTTTTATATTATAGAACTAAGTTCTACATTAACGAAATGATACTAACACTGCAATTTGTGGTGCCAGACCAGGGCAC
DNA 3: GTGCCCTGGTCTGG
For the molecule B1, the binding result was “binds”.
